Results: article PMC10294844, “Functional Diversity of Homologous Oxidoreductases—Tuning of Substrate Specificity by a FAD-Stacking Residue for Iron Acquisition and Flavodoxin Reduction” (Antioxidants, 2023)

Target: the molecule itself
Assay: crystal structure

B1: Bacillus cereus heme-degrading monooxygenase IsdG (enzyme)
chain: MIIVTNTAKITKGNGHKLIERFNKVGKVETMPGFLGLEVLLTQNTVDYDEVTISTRWNAKEDFQGWTKSAAFKDAHSHQGGMPEYILDNKIAYYDVKVVRMPMAAAQ
notes: also called Bc IsdG; IsdGapo
  binding result: binds
